# Source: patent US20190135911A1, “TREATING RESPIRATORY DISEASES BY TARGETING INTERLEUKIN 4 INDUCED 1 (IL4I1)” (Five Prime Therapeutics, Inc., priority 2016, published 2019)
# Entries after “also recorded” stand apart in the source; their conditions may differ.
# Tested on: moDCs in co-culture with bronchial epithelial cells from COPD patients
# Experiment: moDC / COPD bronchial epithelial cell co-culture treated with IL4I1, DC mRNA levels (Quantigene multiplex panel)
# Assay type: cell-based, human
# Conditions: IL4I1 serially diluted into basolateral media; 24 hr BEC pre-incubation, 24 hr co-culture with DCs (COPD donor #AB63); normalized to GAPDH; FIG. 2
# Source text: To differentiate airway epithelium in vitro, healthy smoker derived bronchial epithelial cells (Lonza lot #7F3833, 489, 237440, 899; Epithelix lot #13086) and COPD patient derived bronchial epithelial cells (Lonza lot #3313, 498, 3207, 3379; Epithelix lot #AB63, 472) were expanded according to the Lonza protocol with the following modification: the cells were subjected to two passages in Lonza BEBM media with supplements as reported in Widdicombe et al. (BioTechniques 39:249-255, August 2005). Cells were seeded onto collagen coated 0.4 um 96 transwell plates at 15,000 cells per 75 μl of the above media, and 235 μl of the same media was added to the basolateral receiver plate. After 3 days (with a single apical media change of the same volume), the apical media was completely removed in an airlift. To induce differentiation the cells were then cultured for 18 days with PneumaCult-ALI Medium (StemCell Technologies, #05001).
# DC were generated as follows. […] After 48 hrs of cell culture, DC were lysed and mRNA levels were measured by microarray. […]
# Co-cultures were initiated as described above. […] After 24 hr coculture the DCs were lysed and mRNA levels were measured with an Affymetrix Quantigene multiplex panel on a FlexMap 3D instrument. For each gene the relative luminescence was normalized to a housekeeper gene GAPDH.
molecule,measurement,value
"IL4I1: Human IL4I1 protein (R&D Systems #5684-AO) added to the co-culture media (protein, UniProt Q96RQ9 22-567, looked up) L-amino-acid oxidase: QDWKAERSQDPFEKCMQDPDYEQLLKVVTWGLNRTLKPQRVIVVGAGVAGLVAAKVLSDAGHKVTILEADNRIGGRIFTYRDQNTGWIGELGAMRMPSSHRILHKLCQGLGLNLTKFTQYDKNTWTEVHEVKLRNYVVEKVPEKLGYALRPQEKGHSPEDIYQMALNQALKDLKALGCRKAMKKFERHTLLEYLLGEGNLSRPAVQLLGDVMSEDGFFYLSFAEALRAHSCLSDRLQYSRIVGGWDLLPRALLSSLSGLVLLNAPVVAMTQGPHDVHVQIETSPPARNLKVLKADVVLLTASGPAVKRITFSPPLPRHMQEALRRLHYVPATKVFLSFRRPFWREEHIEGGHSNTDRPSRMIFYPPPREGALLLASYTWSDAAAAFAGLSREEALRLALDDVAALHGPVVRQLWDGTGVVKRWAEDQHSQGGFVVQPPALWQTEKDDWTVPYGRIYFAGEHTAYPHGWVETAVKSALRAAIKINSRKGPASDTASPEGHASDMEGQGHVHGVASSPSHDLAKEEGSHPPVQGQLSLQNTTHTRTSH","mRNA expression of dendritic cell genes (CXCL5, PTGES, S100A8, SERPINB2, THBS1)",enhanced mRNA expression; also recorded: further enhances the expression
